Patent publication US8703913B2, “Sensor” (Medical Research Council, priority 2008, dated 2014)

Legend:
PcrA helicase = PcrA helicase (Geobacillus stearothermophilus, UniProt P56255); test: Steady-state ATP hydrolysis by PcrA helicase monitored with the biosensor; assay type: biochemical, Bacillus stearothermophilus; details: for initial rate of ADP generation: 3.8 μM dT16, 10 μM MDCC-ParM, 20° C.
[1] = Fluorescence titration of labeled ParM with ADP; assay type: binding; details: Table 2, 20° C.; for ADP F+ADP/F−ADP: MDCC-ParM mutants; for Kd: fluorescence titration
Experimental: MDCC fluorescence was excited at 431 nm and detected at 474 nm, for the rhodamine-labeled proteins, excitation and emission wavelengths of 553 nm and 578 nm were used. […] The fraction of ParM bound to ADP was calculated from the fluorescence intensities.
The MDCC fluorescence was excited at 431 nm and emission was recorded at 474 nm. The equilibrium dissociation constants were determined by fitting a quadratic binding curve to the data.
(§1) The equilibrium dissociation constants were determined by fitting a quadratic binding curve to the data and are listed in Table Y. For the plot the experimental fluorescence intensities were normalized to the maximal fluorescence change obtained at saturation with ADP.
(§2) [formula] where [P] and [L] are the total concentrations of protein and ligand, respectively, Kd is the dissociation constant and Fmin and Fmax are the fluorescence intensities of the free and ligand bound protein.
(§3) Fluorescence spectra and titrations were measured in a Cary Eclipse spectrofluorimeter (Varian). Excitation and emission spectra were recorded with 5 nm slit width at emission and excitation wavelength of 576 nm and 553 nm, respectively. In titration experiments rhodamine fluorescence was measured at the same excitation/emission wavelength. Titration data were analyzed with a quadratic binding curve using the program Grafit 5.0 (7).

[2] = Fluorescence titration of labeled ParM with ATP; assay type: binding; details: Table 2; for ATP F+ATP/F−ATP: MDCC-ParM mutants; for ATP F+ATP/F−ATP / Kd: 20° C.; for Kd: highly purified ATP containing only 0.03% ADP
Experimental: The MDCC fluorescence was excited at 431 nm and emission was recorded at 474 nm. The equilibrium dissociation constants were determined by fitting a quadratic binding curve to the data. For the plot the experimental fluorescence intensities were converted to the nucleotide bound fraction of ParM.
as §1
ADP and ATP were purchased from Sigma at the highest purity available. The purity of the nucleotides was analysed by HPLC using a Partisphere SAX column, 125×4.5 mm (Whatman). Nucleotide separation was performed isocratic with 0.3 M (NH4)2HPO4 buffer pH 4.0, 25% MeOH, and the absorbance at 260 nm was monitored.
as §2, §3

[3] = Stopped-flow kinetics of ADP binding and dissociation; details: Table 3
[4] = 2 nM PcrA, 0.5 μM dT20, 5 μM MDCC-ParM, set of calibration curves
[5] = measured with phosphate biosensor MDCC-PBP

| Molecule | ADP F+ADP/F−ADP [1] | Kd [1] [nM] | Kd ratio ATP/ADP [2] | ATP F+ATP/F−ATP [2] | Kd [2] [µM] | also measured |
| --- | --- | --- | --- | --- | --- | --- |
| PcrA: DNA helicase from Bacillus stearothermophilus involved in plasmid replication (protein, UniProt P56255 1-724, looked up) ATP-dependent DNA helicase …: MNFLSEQLLAHLNKEQQEAVRTTEGPLLIMAGAGSGKTRVLTHRIAYLMAEKHVAPWNILAITFTNKAAREMRERVQSLLGGAAEDVWISTFHSMCVRILRRDIDRIGINRNFSILDPTDQLSVMKTILKEKNIDPKKFEPRTILGTISAAKNELLPPEQFAKRASTYYEKVVSDVYQEYQQRLLRNHSLDFDDLIMTTIQLFDRVPDVLHYYQYKFQYIHIDEYQDTNRAQYTLVKKLAERFQNICAVGDADQSIYRWRGADIQNILSFERDYPNAKVILLEQNYRSTKRILQAANEVIEHNVNRKPKRIWTENPEGKPILYYEAMNEADEAQFVAGRIREAVERGERRYRDFAVLYRTNAQSRVMEEMLLKANIPYQIVGGLKFYDRKEIKDILAYLRVIANPDDDLSLLRIINVPKRGIGASTIDKLVRYAADHELSLFEALGELEMIGLGAKAAGALAAFRSQLEQWTQLQEYVSVTELVEEVLDKSGYREMLKAERTIEAQSRLENLDEFLSVTKHFENVSDDKSLIAFLTDLALISDLDELDGTEQAAEGDAVMLMTLHAAKGLEFPVVFLIGMEEGIFPHNRSLEDDDEMEEERRLAYVGITRAEEELVLTSAQMRTLFGNIQMDPPSRFLNEIPAHLLETASRRQAGASRPAVSRPQASGAVGSWKVGDRANHRKWGIGTVVSVRGGGDDQELDIAFPSPIGIKRLLAKFAPIEKV |  |  |  |  |  | initial rate of ADP generation (PcrA helicase; 1 nM PcrA, 5 μM ATP): 10.4 nM/s; Km (PcrA helicase; [4]): 1600 nM; kcat (PcrA helicase; [4]): 13.7 s⁻¹; initial rate of ADP generation (PcrA helicase; 2 nM PcrA, 5 μM ATP): 19.9 nM/s; kcat (PcrA helicase; calibration at 15 μM total nucleotide concentration): 14.0 s⁻¹; kcat (PcrA helicase; calibration in the absence of ATP): 12.2 s⁻¹; steady state hydrolysis activity (PcrA helicase; measured with MDCC-ParM, 5 μM ATP, background subtracted): 6.8 s⁻¹; Km (PcrA helicase; [5]): 1700 nM; kcat (PcrA helicase; [5]): 11.5 s⁻¹; steady state hydrolysis activity (PcrA helicase; [5]): 7.2 s⁻¹; Michaelis-Menten constant for ATP (PcrA helicase; single calibration used for all ATP concentrations): 1.4 µM |
| T175H: MDCC-ParM (His6/I27C/T175H/C287A) (conjugate, UniProt P11904 1-320, looked up, variant I27C T175H C287A, MDCC label; His6 tag) Plasmid segregation protein …: MLVFIDDGSTNIKLQWQESDGTIKQHCSPNSFKREWAVSFGDKKVFNYTLNGEQYSFDPISPDAVVTTNIAWQYSDVNVVAVHHALLTSGLPVSEVDIVCTLPLTEYYDRNNQPNTENIERKKANFRKKITLNGGDTFTIKDVKVMPESIPAGYEVLQELDELDSLLIIDLGGTHLDISQVMGKLSGISKIYGDSSLGVSLVTSAVKDALSLARTKGSSYLADDIIIHRKDNNYLKQRINDENKISIVTEAMNEALRKLEQRVLNTLNEFSGYTHVMVIGGGAELIADAVKKHTQIRDERFFKTNNSQYDLVNGMYLIGN | 3.2 | 400 | 0.4 | 3.9 | 0.16 |  |
| S9Q: MDCC-ParM (His6/S9Q/I27C/C287A) (conjugate, UniProt P11904 1-320, looked up, variant S9Q I27C C287A, MDCC label; His6 tag) Plasmid segregation protein …: MLVFIDDGQTNIKLQWQESDGTIKQHCSPNSFKREWAVSFGDKKVFNYTLNGEQYSFDPISPDAVVTTNIAWQYSDVNVVAVHHALLTSGLPVSEVDIVCTLPLTEYYDRNNQPNTENIERKKANFRKKITLNGGDTFTIKDVKVMPESIPAGYEVLQELDELDSLLIIDLGGTTLDISQVMGKLSGISKIYGDSSLGVSLVTSAVKDALSLARTKGSSYLADDIIIHRKDNNYLKQRINDENKISIVTEAMNEALRKLEQRVLNTLNEFSGYTHVMVIGGGAELIADAVKKHTQIRDERFFKTNNSQYDLVNGMYLIGN | 3.2 | 1660 | 40 | 2.8 | 66 |  |
| T175A: MDCC-ParM (His6/I27C/T175A/C287A) (conjugate, UniProt P11904 1-320, looked up, variant I27C T175A C287A, MDCC label; His6 tag) Plasmid segregation protein …: MLVFIDDGSTNIKLQWQESDGTIKQHCSPNSFKREWAVSFGDKKVFNYTLNGEQYSFDPISPDAVVTTNIAWQYSDVNVVAVHHALLTSGLPVSEVDIVCTLPLTEYYDRNNQPNTENIERKKANFRKKITLNGGDTFTIKDVKVMPESIPAGYEVLQELDELDSLLIIDLGGTALDISQVMGKLSGISKIYGDSSLGVSLVTSAVKDALSLARTKGSSYLADDIIIHRKDNNYLKQRINDENKISIVTEAMNEALRKLEQRVLNTLNEFSGYTHVMVIGGGAELIADAVKKHTQIRDERFFKTNNSQYDLVNGMYLIGN | 3.3 | 370 | 168 | 3.3 | 62 |  |
| T174A: MDCC-ParM (His6/I27C/T174A/C287A) (conjugate, UniProt P11904 1-320, looked up, variant I27C T174A C287A, MDCC label; His6 tag) Plasmid segregation protein …: MLVFIDDGSTNIKLQWQESDGTIKQHCSPNSFKREWAVSFGDKKVFNYTLNGEQYSFDPISPDAVVTTNIAWQYSDVNVVAVHHALLTSGLPVSEVDIVCTLPLTEYYDRNNQPNTENIERKKANFRKKITLNGGDTFTIKDVKVMPESIPAGYEVLQELDELDSLLIIDLGGATLDISQVMGKLSGISKIYGDSSLGVSLVTSAVKDALSLARTKGSSYLADDIIIHRKDNNYLKQRINDENKISIVTEAMNEALRKLEQRVLNTLNEFSGYTHVMVIGGGAELIADAVKKHTQIRDERFFKTNNSQYDLVNGMYLIGN | 2.9 | 390 | 164 | 3.1 | 64 |  |
| E148R: MDCC-ParM (His6/I27C/E148R/C287A) (conjugate, UniProt P11904 1-320, looked up, variant I27C E148R C287A, MDCC label, His6 tag) Plasmid segregation protein …: MLVFIDDGSTNIKLQWQESDGTIKQHCSPNSFKREWAVSFGDKKVFNYTLNGEQYSFDPISPDAVVTTNIAWQYSDVNVVAVHHALLTSGLPVSEVDIVCTLPLTEYYDRNNQPNTENIERKKANFRKKITLNGGDTFTIKDVKVMPRSIPAGYEVLQELDELDSLLIIDLGGTTLDISQVMGKLSGISKIYGDSSLGVSLVTSAVKDALSLARTKGSSYLADDIIIHRKDNNYLKQRINDENKISIVTEAMNEALRKLEQRVLNTLNEFSGYTHVMVIGGGAELIADAVKKHTQIRDERFFKTNNSQYDLVNGMYLIGN | <1.1 |  |  | <1.1 |  |  |
| T175F: MDCC-ParM (His6/I27C/T175F/C287A) (conjugate, UniProt P11904 1-320, looked up, variant I27C T175F C287A, MDCC label; His6 tag) Plasmid segregation protein …: MLVFIDDGSTNIKLQWQESDGTIKQHCSPNSFKREWAVSFGDKKVFNYTLNGEQYSFDPISPDAVVTTNIAWQYSDVNVVAVHHALLTSGLPVSEVDIVCTLPLTEYYDRNNQPNTENIERKKANFRKKITLNGGDTFTIKDVKVMPESIPAGYEVLQELDELDSLLIIDLGGTFLDISQVMGKLSGISKIYGDSSLGVSLVTSAVKDALSLARTKGSSYLADDIIIHRKDNNYLKQRINDENKISIVTEAMNEALRKLEQRVLNTLNEFSGYTHVMVIGGGAELIADAVKKHTQIRDERFFKTNNSQYDLVNGMYLIGN | 2.5 | 4700 | 29 | 2.5 | 137 |  |
| S9A: MDCC-ParM (His6/S9A/I27C/C287A) (conjugate, UniProt P11904 1-320, looked up, variant S9A I27C C287A, MDCC label; His6 tag) Plasmid segregation protein …: MLVFIDDGATNIKLQWQESDGTIKQHCSPNSFKREWAVSFGDKKVFNYTLNGEQYSFDPISPDAVVTTNIAWQYSDVNVVAVHHALLTSGLPVSEVDIVCTLPLTEYYDRNNQPNTENIERKKANFRKKITLNGGDTFTIKDVKVMPESIPAGYEVLQELDELDSLLIIDLGGTTLDISQVMGKLSGISKIYGDSSLGVSLVTSAVKDALSLARTKGSSYLADDIIIHRKDNNYLKQRINDENKISIVTEAMNEALRKLEQRVLNTLNEFSGYTHVMVIGGGAELIADAVKKHTQIRDERFFKTNNSQYDLVNGMYLIGN | 3.1 | 2500 | 39 | 2.9 | 98 |  |
| T175N: MDCC-ParM (His6/I27C/T175N/C287A) (conjugate, UniProt P11904 1-320, looked up, variant I27C T175N C287A, MDCC label; His6 tag) Plasmid segregation protein …: MLVFIDDGSTNIKLQWQESDGTIKQHCSPNSFKREWAVSFGDKKVFNYTLNGEQYSFDPISPDAVVTTNIAWQYSDVNVVAVHHALLTSGLPVSEVDIVCTLPLTEYYDRNNQPNTENIERKKANFRKKITLNGGDTFTIKDVKVMPESIPAGYEVLQELDELDSLLIIDLGGTNLDISQVMGKLSGISKIYGDSSLGVSLVTSAVKDALSLARTKGSSYLADDIIIHRKDNNYLKQRINDENKISIVTEAMNEALRKLEQRVLNTLNEFSGYTHVMVIGGGAELIADAVKKHTQIRDERFFKTNNSQYDLVNGMYLIGN | 3.4 | 600 | 307 | 3.2 | 184 | kon ([3]; ADP association, stopped-flow, 20° C.): 0.64 µM⁻¹ s⁻¹; Kd ([3]; calculated as koff/kon): 420 nM; koff ([3]; displacement with unlabeled ParM, 20° C.): 0.27 s⁻¹ |
